Measured values from patent publication US20190352402A1 (NANJING LEADS BIOLABS, published 2019).
Read-outs that look alike come from different tables or passages of the source. One block for each binder: values may come before it.

Key:
[1] = target: T1, human PD-1 of SEQ ID NO.: 66 stably expressed on transfected cells (CHO-K1-PD-1 cells; Jurkat-NFAT-PD1 cells) (human, UniProt Q15116 25-288); test: flow cytometry on CHO-K1 cells stably expressing human PD-1, MFI
T1 construct: also called cell surface PD-1; PD-1 expressed on CHO-K1-PD-1 cells
T1 sequence (Q15116 25-288 limits assumed): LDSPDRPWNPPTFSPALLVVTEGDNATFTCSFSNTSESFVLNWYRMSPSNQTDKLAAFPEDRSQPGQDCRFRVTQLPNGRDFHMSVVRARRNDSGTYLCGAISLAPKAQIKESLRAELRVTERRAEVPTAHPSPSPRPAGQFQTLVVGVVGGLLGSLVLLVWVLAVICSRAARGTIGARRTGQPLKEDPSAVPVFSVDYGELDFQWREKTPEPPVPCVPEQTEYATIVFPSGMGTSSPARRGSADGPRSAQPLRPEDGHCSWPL

[2] = target: T2, Human PD-1 protein (SINO Biological Inc., Cat#10377-H08H-100) (human, UniProt Q15116 25-167); test: ELISA, human PD-1 coated at 25 ng/well, detection with anti-human F(ab')2-HRP
T2 construct: Bought protein
T2 sequence (Q15116 25-167 limits assumed): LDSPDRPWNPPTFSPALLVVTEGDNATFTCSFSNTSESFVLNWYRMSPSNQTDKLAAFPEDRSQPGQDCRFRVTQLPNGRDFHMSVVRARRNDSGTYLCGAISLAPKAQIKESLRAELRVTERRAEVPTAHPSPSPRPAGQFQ

[3] = target: T3, Human PD-1 (prepared in Leadsbiolabs, amino acid sequence of NP_005009.2 set forth in SEQ ID NO.: 66) (human, UniProt Q15116 25-170, limits assumed); test: blocking ELISA, human PD-1 coated, blocked ligand human PD-L1-mouse Fc-tag
T3 sequence (Q15116 25-170 limits assumed): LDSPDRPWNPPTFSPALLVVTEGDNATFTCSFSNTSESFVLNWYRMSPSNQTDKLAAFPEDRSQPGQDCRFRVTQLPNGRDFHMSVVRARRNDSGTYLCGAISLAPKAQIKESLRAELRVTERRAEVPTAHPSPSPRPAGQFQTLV

[4] = target: T3, Human PD-1 (prepared in Leadsbiolabs, …); test: as above; remark: listed apart in the source
[5] = target: T3, Human PD-1 (prepared in Leadsbiolabs, …); test: as above; remark: listed apart in the source
[6] = target: T3, Human PD-1 (prepared in Leadsbiolabs, …); test: as above; remark: listed apart in the source
[7] = target: T2, Human PD-1 protein (SINO Biological …); test: ELISA, human PD-1 coated at 25 ng/well, detection with anti-human F(ab')2-HRP; remark: listed apart in the source
[8] = target: T2, Human PD-1 protein (SINO Biological …); test: as above; remark: listed apart in the source
[9] = target: T2, Human PD-1 protein (SINO Biological …); test: as above; remark: listed apart in the source
[10] = target: T3, Human PD-1 (prepared in Leadsbiolabs, …); test: blocking ELISA, human PD-1 coated, blocked ligand human PD-L1-mouse Fc-tag; x axis printed as log values -1 to 2
[11] = target: Human FcγRI (Acrobiosystems, Cat# FCA-H52H2) (human, UniProt P12314 16-288); test: ELISA, human FcγRI coated, detection with anti-human F(ab')2-HRP
Sequence of Human FcγRI (Acrobiosystems, Cat# FCA-H52H2) (P12314 16-288 limits assumed): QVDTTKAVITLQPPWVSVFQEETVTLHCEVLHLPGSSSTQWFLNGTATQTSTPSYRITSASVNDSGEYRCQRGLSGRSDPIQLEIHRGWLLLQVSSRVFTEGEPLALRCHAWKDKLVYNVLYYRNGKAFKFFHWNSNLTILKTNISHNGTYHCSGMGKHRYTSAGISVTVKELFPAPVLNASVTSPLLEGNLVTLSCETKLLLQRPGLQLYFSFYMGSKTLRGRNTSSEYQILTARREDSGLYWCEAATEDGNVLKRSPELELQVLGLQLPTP

[12] = target: T4, mouse PD-1 protein (SINO Biological Inc., Cat#50124-M08H) (mouse, UniProt Q02242 25-167); test: ELISA, mouse PD-1 coated at 25 ng/well
T4 sequence (looked up): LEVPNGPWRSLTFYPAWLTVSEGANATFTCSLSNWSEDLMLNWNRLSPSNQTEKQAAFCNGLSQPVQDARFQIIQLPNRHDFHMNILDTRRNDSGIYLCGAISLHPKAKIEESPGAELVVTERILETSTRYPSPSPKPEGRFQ

[13] = target: T5, Human ICOS (Acrobiosystems, Cat# ICS-H5250) (human, UniProt Q9Y6W8 21-140, limits assumed); test: ELISA, human ICOS coated at 25 ng/well
T5 sequence (looked up): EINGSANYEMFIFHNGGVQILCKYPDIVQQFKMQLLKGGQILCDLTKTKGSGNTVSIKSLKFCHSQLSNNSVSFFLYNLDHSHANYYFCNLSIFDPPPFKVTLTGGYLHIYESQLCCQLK

[14] = target: T6, human BTLA (Acrobiosystems, Cat# BTA-H52E0) (human, UniProt Q7Z6A9 31-150, limits assumed); test: ELISA, human BTLA coated at 25 ng/well
T6 sequence (looked up): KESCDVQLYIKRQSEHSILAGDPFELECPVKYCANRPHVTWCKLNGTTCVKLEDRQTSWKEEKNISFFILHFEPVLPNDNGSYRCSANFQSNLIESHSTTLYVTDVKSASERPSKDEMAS

[15] = target: T7, human CTLA-4 (Acrobiosystems, Cat# CT4-H5229) (human, UniProt P16410 36-161); test: ELISA, human CTLA-4 coated at 25 ng/well
T7 sequence (looked up): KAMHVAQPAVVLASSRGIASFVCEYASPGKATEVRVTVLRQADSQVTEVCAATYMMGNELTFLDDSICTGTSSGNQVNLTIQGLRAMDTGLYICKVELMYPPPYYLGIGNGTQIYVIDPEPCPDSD

[16] = target: T8, cynomolgus PD-1 expressed on stimulated cynomolgus PBMCs (cynomolgus monkey, UniProt B0LAJ3 25-288); test: flow cytometry on cynomolgus PBMCs after SEB stimulation, MFI
T8 construct: also called monkey PD-1; PD-1 expressed on cynomolgus monkey PBMCs
T8 sequence (B0LAJ3 entry or part of it limits assumed): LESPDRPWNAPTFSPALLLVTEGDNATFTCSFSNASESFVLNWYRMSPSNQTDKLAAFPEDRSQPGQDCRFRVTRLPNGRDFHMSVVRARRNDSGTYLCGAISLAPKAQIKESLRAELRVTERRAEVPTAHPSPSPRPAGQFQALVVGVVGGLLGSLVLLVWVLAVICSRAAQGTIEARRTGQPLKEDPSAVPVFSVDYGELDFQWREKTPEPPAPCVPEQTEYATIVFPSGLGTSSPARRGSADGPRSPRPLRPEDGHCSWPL

[17] = target: T2, Human PD-1 protein (SINO Biological …); test: ELISA, human PD-1 coated at 25 ng/well
[18] = target: T9, cynomolgus PD-1-his protein (Acrobiosystems, Cat# PD1-05223) (cynomolgus monkey, UniProt B0LAJ3 25-170); test: ELISA, cynomolgus PD-1 coated at 25 ng/well
T9 construct: also called cynoPD-1-his; cynomolgus PD-1 protein
T9 sequence (B0LAJ3 entry or part of it limits assumed): as the sequence (Q15116 25-170 limits assumed) above, with D2E, P10A, V19L, T35A, Q75R, T144A counted along it

[19] = target: T3, Human PD-1 (prepared in Leadsbiolabs, …); test: blocking ELISA, human PD-1 coated, blocked ligand human PD-L1-mouse Fc-tag; fit value printed in the table although the control's curve does not fall (see non_binding)

B1: anti-PD-1 antibody 21F12 (mutant IgG1 constant region of SEQ ID NO: 18) (antibody, V domains shown)
VH: QMQLVQSGAEVKKPGASVKLSCKASGYIFTSYYIHWVRQAPGQGLEWVGVINPSGGSTTYAQKFQGRVTMTRDTSISTAYMELSRLRSDDTVVYYCARGSYSSGWDYYYYYGMDVWGKGTLVTVSS
VL: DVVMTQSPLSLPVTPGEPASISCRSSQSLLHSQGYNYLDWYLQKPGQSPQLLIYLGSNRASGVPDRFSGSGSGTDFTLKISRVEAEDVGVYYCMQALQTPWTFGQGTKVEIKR
notes: Full length IgG expressed in CHO-S cells
EC50 [1]: 1.06 nM | EC50 [2]: 0.0447 nM | IC50 [3]: 0.834 nM | IC50 [4]: 0.913 nM | IC50 [5]: 0.716 nM | IC50 [6]: 0.684 nM

B2: anti-PD-1 antibody 21F12-1E11 (mutant IgG1 constant region of SEQ ID NO: 18) (antibody, V domains shown)
VH: QMQLVQSGAEVKKPGASVKLSCKASGYFFQSYYIHWVRQAPGQGLEWVGVINPSGGSTTYAQKFQGRVTMTRDTSISTAYMELSRLRSDDTVVYYCARGSYSSGWDYYYYYGMDVWGKGTLVTVSS
VL: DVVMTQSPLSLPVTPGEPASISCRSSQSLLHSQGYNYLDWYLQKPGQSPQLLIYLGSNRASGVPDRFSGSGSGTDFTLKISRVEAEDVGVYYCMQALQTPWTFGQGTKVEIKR
notes: mutant IgG1
EC50 [7]: 0.0914 nM | EC50 [8]: 0.0936 nM | IC50 [4]: 0.653 nM

B3: anti-PD-1 antibody 21F12-2E1 (mutant IgG1 constant region of SEQ ID NO: 18) (antibody, V domains shown)
VH: QMQLVQSGAEVKKPGASVKLSCKASEYIFQSYYIHWVRQAPGQGLEWVGVINPSGGSTTYAQKFQGRVTMTRDTSISTAYMELSRLRSDDTVVYYCARGSYSSGWDYYYYYGMDVWGKGTLVTVSS
VL: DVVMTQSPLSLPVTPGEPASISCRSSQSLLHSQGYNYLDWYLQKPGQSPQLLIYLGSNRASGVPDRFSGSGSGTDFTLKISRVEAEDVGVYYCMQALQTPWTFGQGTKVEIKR
notes: mutant IgG1
EC50 [8]: 0.136 nM | IC50 [4]: 1.1 nM

B4: anti-PD-1 antibody 21F12-2H7 (mutant IgG1 constant region of SEQ ID NO: 18) (antibody, V domains shown)
VH: QMQLVQSGAEVKKPGASVKLSCKASQYIFQSYYIHWVRQAPGQGLEWVGVINPSGGSTTYAQKFQGRVTMTRDTSISTAYMELSRLRSDDTVVYYCARGSYSSGWDYYYYYGMDVWGKGTLVTVSS
VL: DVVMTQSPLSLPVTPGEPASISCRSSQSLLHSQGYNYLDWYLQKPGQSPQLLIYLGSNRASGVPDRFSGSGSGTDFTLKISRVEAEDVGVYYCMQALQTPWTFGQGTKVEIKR
notes: mutant IgG1
EC50 [8]: 0.101 nM | IC50 [4]: 1.15 nM

B5: anti-PD-1 antibody 21F12-1E10 (mutant IgG1 constant region of SEQ ID NO: 18) (antibody, V domains shown)
VH: QMQLVQSGAEVKKPGASVKLSCKASGYPFTSYYIHWVRQAPGQGLEWVGVINPSGGSTTYAQKFQGRVTMTRDTSISTAYMELSRLRSDDTVVYYCARGSYSSGWDYYYYYGMDVWGKGTLVTVSS
VL: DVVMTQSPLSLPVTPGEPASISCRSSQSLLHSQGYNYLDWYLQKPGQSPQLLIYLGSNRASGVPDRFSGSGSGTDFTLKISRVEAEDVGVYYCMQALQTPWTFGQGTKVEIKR
notes: mutant IgG1
EC50 [1]: 0.464 nM | EC50 [7]: 0.111 nM | IC50 [6]: 0.482 nM

B6: anti-PD-1 antibody 21F12-1C4 (mutant IgG1 constant region of SEQ ID NO: 18) (antibody, V domains shown)
VH: QMQLVQSGAEVKKPGASVKLSCKASDYIFTSYYIHWVRQAPGQGLEWVGVINPSGGSTTYAQKFQGRVTMTRDTSISTAYMELSRLRSDDTVVYYCARGSYSSGWDYYYYYGMDVWGKGTLVTVSS
VL: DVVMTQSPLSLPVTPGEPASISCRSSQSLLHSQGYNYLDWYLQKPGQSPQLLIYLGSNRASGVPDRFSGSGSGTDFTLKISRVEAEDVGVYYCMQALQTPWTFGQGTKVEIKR
notes: mutant IgG1
EC50 [1]: 0.479 nM | IC50 [5]: 0.558 nM

B7: anti-PD-1 antibody 21F12-1B12 (mutant IgG1 constant region of SEQ ID NO: 18) (antibody, V domains shown)
VH: QMQLVQSGAEVKKPGASVKLSCKASGYPFQSYYIHWVRQAPGQGLEWVGVINPSGGSTTYAQKFQGRVTMTRDTSISTAYMELSRLRSDDTVVYYCARGSYSSGWDYYYYYGMDVWGKGTLVTVSS
VL: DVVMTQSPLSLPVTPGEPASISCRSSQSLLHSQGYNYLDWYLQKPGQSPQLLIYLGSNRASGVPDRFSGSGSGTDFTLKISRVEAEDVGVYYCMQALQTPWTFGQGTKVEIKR
notes: mutant IgG1
EC50 [1]: 0.257 nM | EC50 [9]: 0.0936 nM | EC50 [8]: 0.102 nM | IC50 [4]: 0.623 nM | IC50 [10]: 0.725 nM

Continued, values first:

EC50 [1]: 0.334 nM | EC50 [7]: 0.108 nM | IC50 [3]: 0.699 nM
B8: anti-PD-1 antibody 21F12-3G1 (mutant IgG1 constant region of SEQ ID NO: 18) (antibody, V domains shown)
VH: QMQLVQSGAEVKKPGASVKLSCKASGYIFTSYYIHWVRQAPGQGLEWVGVINPSGGSTTYAQKFQGRVTMTRDTSISTAYMELSRLRSDDTVVYYCARGSYNSGWDYYYYYGMDVWGKGTLVTVSS
VL: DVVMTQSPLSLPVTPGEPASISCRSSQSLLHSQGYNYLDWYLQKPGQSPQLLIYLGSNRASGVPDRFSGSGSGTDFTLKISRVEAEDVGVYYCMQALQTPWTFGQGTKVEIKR
notes: mutant IgG1

binding result [11]: binds
B9: Rituximab analog (antibody, human IgG1, kappa)
heavy: not shown
light: QIVLSQSPAILSASPGEKVTMTCRASSSVSYIHWFQQKPGSSPKPWIYATSNLASGVPVRFSGSGSGTSYSLTISRVEAEDAATYYCQQWTSNPPTFGGGTKLEIKRTVAAPSVFIFPPSDEQLKSGTASVVCLLNNFYPREAKVQWKVDNALQSGNSQESVTEQDSKDSTYSLSSTLTLSKADYEKHKVYACEVTHQGLSSPVTKSFNRGEC
notes: Wild type IgG1 heavy chain constant region; also called positive control of the FcγRI ELISA

binding result [12]: no binding (tested: about 2 nM) | binding result [13]: no binding (tested: about 2 nM) | binding result [14]: no binding (tested: about 2 nM) | binding result [15]: no binding (tested: about 2 nM) | EC50 [16]: 0.692 nM
B10: Nivolumab analog (antibody, human IgG4 S228P, kappa, V domains shown)
VH: QVQLVESGGGVVQPGRSLRLDCKASGITFSNSGMHWVRQAPGKGLEWVAVIWYDGSKRYYADSVKGRFTISRDNSKNTLFLQMNSLRAEDTAVYYCATNDDYWGQGTLVTVSS
VL: EIVLTQSPATLSLSPGERATLSCRASQSVSSYLAWYQQKPGQAPRLLIYDASNRATGIPARFSGSGSGTDFTLTISSLEPEDFAVYYCQQSSNWPRTFGQGTKVEIKR
notes: also called positive control

binding result [17]: no binding (tested: about 2 nM) | binding result [18]: no binding (tested: about 2 nM) | IC50 [19]: 3.77 nM
B11: IgG Control (antibody, V domains shown)
VH: QVQLQESGGGVVRPGGSLRLSCAASGFTFDDYGMSWVRQAPGKGLEWVSGINWSGGSTYYADSVKGRSTISRDNSKNTLYLQMNSLRAEDTAVYYCATGGYWGQGTLVTVSS
VL: not shown
notes: also called human IgG control
